# Measurements taken from PMC10992290, “In vitro biosynthesis of ATP from adenosine and polyphosphate” (Bioresources and Bioprocessing, 2021).
# B1: SlPPK (Sulfurovum lithotrophicum) (protein)
# chain: MKKNIYKKELYKLQVELVKFQKYVIEENVAVCLVLEGRDTAGKDGTIKRFTEHLSPREARTVALGVPSDKEKKSWYFQRYVPHLPSAGEIVFFNRSWYNRAGVEKVMGFCTKKQYKAFMEEVGSFEQMLTHSNIRFFKYYLDITKKEQKKRLEARKTDPLKQWKLSPIDAKAQKMWDAYSKARDDMFNKTSFIYAPWYVVHTDDKKEARINIMKHFLSLNDYPDKDKALLVYDHDVICKFDPVCYEKEMIAP
# B2: LhPPK (Lampropedia hyalina DSM 16112) (protein)
# chain: MTRKESPPMEAFKKYRISPKNTLKDIDPSDKPFSFGTKKDELQRLDELAVELDDLQNTLYAGKRRKVLLILQGLDTSGKDGTIRWVFSRTSPLGVHVAAFKAPSERERAHDFLWRCHAVVPANGELTVWNRSHYEDVLVPPVEGWIDKAETQRRYGHINDFERLLSETGTTIVKCMLHISNEEQRERLQDRLKDPGKNWKFAADDLSTRAKWNDYQRAYEQALQATSTPHAPWYVIPANSKRHRNLMVAQLLVQTLRDMKLRLPPPNLAFKDLVVN
# Key:
# Assay in all cases: HPLC nucleotide assay
# AtAdk = target: T1, AtAdk (Arabidopsis thaliana, UniProt Q9LZG0); type: biochemical; conditions: phosphate donor; 10 mM adenosine, 20 mM MgCl2, Tris-HCl pH 8.0, 45 °C
# T1 construct: gene ADK2
# HPLC nucleotide assay [1] = substrate: Nc1ncnc2c1ncn2[C@@H]1O[C@H](COP(=O)(O)OP(=O)(O)O)[C@@H](O)[C@H]1O; type: biochemical, Sulfurovum lithotrophicum; conditions: polyP6 as phosphate donor, MgCl2, Tris-HCl pH 8.0, 37 °C (routine assay)
# Text: HPLC nucleotide assay on SlPPK
# HPLC nucleotide assay [2] = substrate: Nc1ncnc2c1ncn2[C@@H]1O[C@H](COP(=O)(O)O)[C@@H](O)[C@H]1O; type: biochemical, Lampropedia hyalina; conditions: polyP6 as phosphate donor, MgCl2, Tris-HCl pH 8.0, 37 °C (routine assay)
# Text: HPLC nucleotide assay on LhPPK
# T1 sequence (Q9LZG0 whole entry): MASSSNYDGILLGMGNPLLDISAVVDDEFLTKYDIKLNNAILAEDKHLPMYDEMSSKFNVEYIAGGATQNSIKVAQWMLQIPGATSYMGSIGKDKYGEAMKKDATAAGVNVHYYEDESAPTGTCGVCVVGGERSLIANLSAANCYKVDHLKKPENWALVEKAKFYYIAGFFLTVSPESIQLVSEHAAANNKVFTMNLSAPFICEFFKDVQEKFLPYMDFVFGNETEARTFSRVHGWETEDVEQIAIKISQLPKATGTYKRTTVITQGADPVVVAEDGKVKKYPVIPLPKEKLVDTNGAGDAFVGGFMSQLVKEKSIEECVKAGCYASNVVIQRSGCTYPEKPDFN
molecule,measurement,setting,value
Nc1ncnc2c1ncn2[C@@H]1O[C@H](COP(=O)(O)OP(=O)(O)OP(=O)(O)O)[C@@H](O)[C@H]1O [ATP],HPLC nucleotide assay,AtAdk,"conversion of adenosine to AMP by AtAdk, which required ATP as a phosphate donor"
B1,Km,HPLC nucleotide assay [1],0.61 mM
same,Vmax,HPLC nucleotide assay [1],1400 µM/min
same,kcat,HPLC nucleotide assay [1],140 s⁻¹
same,kcat/Km,HPLC nucleotide assay [1],230000 M⁻¹ s⁻¹
B2,Km,HPLC nucleotide assay [2],5.70 mM
same,Vmax,HPLC nucleotide assay [2],860 µM/min
same,kcat,HPLC nucleotide assay [2],92 s⁻¹
same,kcat/Km,HPLC nucleotide assay [2],16100 M⁻¹ s⁻¹
